Assay [1] has as its target T1, Human AKAP1 (prey026778), A kinase anchor protein 1 (Human, UniProt Q92667 30-903).
T1 construct: Prey fragments (vector pP6) in the primary screen
T1 sequence: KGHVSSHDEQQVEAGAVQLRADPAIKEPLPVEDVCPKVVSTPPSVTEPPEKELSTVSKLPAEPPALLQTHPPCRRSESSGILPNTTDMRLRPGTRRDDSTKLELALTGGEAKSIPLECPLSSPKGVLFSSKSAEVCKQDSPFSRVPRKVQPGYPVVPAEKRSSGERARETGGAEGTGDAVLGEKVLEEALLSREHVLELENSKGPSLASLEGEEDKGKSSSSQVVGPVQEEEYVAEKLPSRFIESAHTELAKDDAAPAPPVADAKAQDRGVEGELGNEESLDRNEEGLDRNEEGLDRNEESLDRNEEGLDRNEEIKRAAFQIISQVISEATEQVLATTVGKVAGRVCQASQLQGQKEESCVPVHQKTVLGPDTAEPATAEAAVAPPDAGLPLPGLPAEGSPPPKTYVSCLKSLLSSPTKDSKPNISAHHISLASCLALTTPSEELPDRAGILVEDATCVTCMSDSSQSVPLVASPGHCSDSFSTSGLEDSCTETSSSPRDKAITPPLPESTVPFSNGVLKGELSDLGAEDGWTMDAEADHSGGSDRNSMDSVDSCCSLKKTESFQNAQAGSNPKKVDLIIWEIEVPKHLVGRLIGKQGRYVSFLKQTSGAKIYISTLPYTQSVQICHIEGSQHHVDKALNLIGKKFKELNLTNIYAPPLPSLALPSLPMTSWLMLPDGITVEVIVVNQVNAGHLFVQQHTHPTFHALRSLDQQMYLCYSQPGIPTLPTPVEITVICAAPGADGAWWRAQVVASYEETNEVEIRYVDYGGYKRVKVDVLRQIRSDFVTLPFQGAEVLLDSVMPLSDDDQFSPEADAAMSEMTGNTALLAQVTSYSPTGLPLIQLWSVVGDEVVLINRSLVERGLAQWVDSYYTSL
Kind of assay: yeast two-hybrid screen, bait RT_v1, CEMC7 random primed cDNA prey library; table of bait-prey interactions.

The target of assay [2] is T2, BRCA1 assoc. Prot.1 (BAP1), prey17662 / prey145885, prey fragments (Human, UniProt Q92560 1-729).
T2 construct: also called hBAP1; Ubiquitin Hydrolase
T2 sequence: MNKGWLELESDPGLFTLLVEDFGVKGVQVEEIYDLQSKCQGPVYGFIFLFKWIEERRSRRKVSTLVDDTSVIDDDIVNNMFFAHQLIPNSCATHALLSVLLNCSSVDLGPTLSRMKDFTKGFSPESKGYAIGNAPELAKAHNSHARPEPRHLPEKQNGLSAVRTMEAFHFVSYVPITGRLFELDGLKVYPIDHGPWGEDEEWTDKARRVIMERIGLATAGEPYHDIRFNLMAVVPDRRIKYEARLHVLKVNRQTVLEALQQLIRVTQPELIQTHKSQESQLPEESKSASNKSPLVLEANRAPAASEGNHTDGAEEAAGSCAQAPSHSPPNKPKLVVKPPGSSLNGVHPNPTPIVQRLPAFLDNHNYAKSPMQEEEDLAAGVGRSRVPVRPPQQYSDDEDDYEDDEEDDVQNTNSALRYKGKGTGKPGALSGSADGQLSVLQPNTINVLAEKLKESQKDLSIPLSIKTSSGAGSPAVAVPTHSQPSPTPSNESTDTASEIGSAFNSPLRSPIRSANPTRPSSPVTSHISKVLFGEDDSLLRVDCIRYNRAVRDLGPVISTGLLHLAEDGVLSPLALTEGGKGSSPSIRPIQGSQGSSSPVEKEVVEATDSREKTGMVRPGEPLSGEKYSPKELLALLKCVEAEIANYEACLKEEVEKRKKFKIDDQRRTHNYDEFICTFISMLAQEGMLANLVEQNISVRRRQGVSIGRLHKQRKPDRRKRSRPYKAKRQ
Kind of assay: yeast two-hybrid screen, bait NC_v1 (pB6), Human CEMC7 Random Primed prey library; table of bait-prey interactions.

For assay [3], the target named is T3, Casein Kinase 2, beta polypeptide (CSNK2B), prey47239, prey fragments (Human, UniProt P67870 2-215).
T3 construct: also called hCSNK2B; regulatory beta chain of CK2
T3 sequence (P67870 2-215 limits assumed): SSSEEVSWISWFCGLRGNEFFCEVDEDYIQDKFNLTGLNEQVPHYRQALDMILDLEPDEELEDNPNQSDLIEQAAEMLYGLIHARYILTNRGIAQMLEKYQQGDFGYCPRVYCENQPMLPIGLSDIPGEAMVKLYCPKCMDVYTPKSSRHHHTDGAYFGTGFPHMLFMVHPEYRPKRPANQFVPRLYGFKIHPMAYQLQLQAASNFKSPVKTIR
Kind of assay: yeast two-hybrid screen, bait PR_v1 (pB27), Human CEMC7 Random Primed prey library; table of bait-prey interactions.

In assay [4] the target is T4, Human UBE1 (prey030679), prey fragments (Human, UniProt P22314 2-1058).
T4 sequence: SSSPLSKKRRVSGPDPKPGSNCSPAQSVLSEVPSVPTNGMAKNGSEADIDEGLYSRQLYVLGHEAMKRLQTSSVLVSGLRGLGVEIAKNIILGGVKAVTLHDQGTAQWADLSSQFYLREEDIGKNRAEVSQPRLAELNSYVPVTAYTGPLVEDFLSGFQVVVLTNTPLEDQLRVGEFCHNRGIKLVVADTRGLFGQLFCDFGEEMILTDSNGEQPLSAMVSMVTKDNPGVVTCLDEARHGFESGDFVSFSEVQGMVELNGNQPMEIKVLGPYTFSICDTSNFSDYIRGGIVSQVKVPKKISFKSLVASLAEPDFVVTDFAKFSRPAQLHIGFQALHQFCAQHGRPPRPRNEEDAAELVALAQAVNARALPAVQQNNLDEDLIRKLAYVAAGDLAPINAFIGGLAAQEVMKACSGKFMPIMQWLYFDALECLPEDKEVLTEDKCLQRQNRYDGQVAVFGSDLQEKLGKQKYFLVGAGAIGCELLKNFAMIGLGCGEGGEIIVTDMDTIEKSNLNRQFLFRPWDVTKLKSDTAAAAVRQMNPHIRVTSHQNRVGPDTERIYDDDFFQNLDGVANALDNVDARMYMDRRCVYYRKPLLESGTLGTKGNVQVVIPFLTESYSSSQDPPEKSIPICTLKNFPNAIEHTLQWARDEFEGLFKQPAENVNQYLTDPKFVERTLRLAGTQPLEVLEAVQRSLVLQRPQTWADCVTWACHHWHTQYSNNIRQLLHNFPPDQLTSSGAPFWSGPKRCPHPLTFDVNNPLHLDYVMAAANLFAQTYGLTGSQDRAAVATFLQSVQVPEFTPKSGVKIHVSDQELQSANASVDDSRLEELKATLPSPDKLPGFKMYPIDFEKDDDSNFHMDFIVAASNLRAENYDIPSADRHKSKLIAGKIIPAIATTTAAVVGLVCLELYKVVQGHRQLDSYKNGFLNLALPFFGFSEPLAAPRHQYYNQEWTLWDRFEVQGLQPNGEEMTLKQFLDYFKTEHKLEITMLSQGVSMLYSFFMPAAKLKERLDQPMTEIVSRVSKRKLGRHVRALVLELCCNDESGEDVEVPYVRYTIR
Kind of assay: yeast two-hybrid screen, bait PR_v1 (pB27), CEMC7 oligo dT primed cDNA prey library; table of bait-prey interactions.

B1: HIV-1 reverse transcriptase p66 subunit, bait RT_v1 (enzyme)
chain: not shown
notes: also called p66 RT; HIV-1 p66 RT
On to B1, for which the binding result in assay [1] was “binds”.

B2: HIV-1 Nucleocapsid NCp7, bait NC_v1 (other)
chain: MQRGNFRNQRKTVKCFNCGKEGHIAKNCRAPRKKGCWKCGKEGHQMKDCTERQAN
On to B2, for which the binding result in assay [2] was “binds”.

B3: HIV-1 protease, bait PR_v1 (enzyme)
chain: not shown
As to B3, the binding result in assay [3] and in assay [4] was “binds” each time.

Source of the values: patent US20060034860A1 (CELLVIR, published 2006).
